Source: patent publication US20220290113

What was measured:
[1] = target: AcrIIC1Nme
[2] = target: AcrIIC2Nme
[3] = target: AcrIIC3Nme
[4] = target: AcrIIC4Hpa
[5] = target: AcrIIC5Smu
[6] = target: AcrE2

Row | Protein | in vitro DNA cleavage by Cas9 in the presence of Acr (10:1 Acr:Cas9 molar ratio) [1] | in vitro DNA cleavage by Cas9 in the presence of Acr (10:1 Acr:Cas9 molar ratio) [2] | in vitro DNA cleavage by Cas9 in the presence of Acr (10:1 Acr:Cas9 molar ratio) [3] | in vitro DNA cleavage by Cas9 in the presence of Acr (10:1 Acr:Cas9 molar ratio) [4] | in vitro DNA cleavage by Cas9 in the presence of Acr (10:1 Acr:Cas9 molar ratio) [5] | in vitro DNA cleavage by Cas9 in the presence of Acr (10:1 Acr:Cas9 molar ratio) [6] | in vitro DNA cleavage by the Nme1Cas9-Nme2Cas9PID chimera in the presence of Acr (10 uM Cas9-sgRNA + 100 uM Acr) [5]
1 | Recombinant Nme2Cas9 (Cas9 of Neisseria meningitidis strain Del1444), purified from E. coli (protein) PKKKRKVNAMAAFKPNPINYILGLDIGIASVGWAMVEIDEEENPIRLIDLGVRVFERAEVPKTGDSLAMARRLARSVRRLTRRRAHRLLRARRLLKREGVLQAADFDENGLIKSLPNTPWQLRAAALDRKLTPLEWSAVLLHLIKHRGYLSQRKNEGETADKELGALLKGVANNAHALQTGDFRTPAELALNKFEKESGHIRNQRGDYSHTFSRKDLQAELILLFEKQKEFGNPHVSGGLKEGIETLLMTQRPALSGDAVQKMLGHCTFEPAEPKAAKNTYTAERFIWLTKLNNLRILEQGSERPLTDTERATLMDEPYRKSKLTYAQARKLLGLEDTAFFKGLRYGKDNAEASTLMEMKAYHAISRALEKEGLKDKKSPLNLSSELQDEIGTAFSLFKTDEDITGRLKDRVQPEILEALLKHISFDKFVQISLKALRRIVPLMEQGKRYDEACAEIYGDHYGKKNTEEKIYLPPIPADEIRNPVVLRALSQARKVINGVVRRYGSPARIHIETAREVGKSFKDRKEIEKRQEENRKDREKAAAKFREYFPNFVGEPKSKDILKLRLYEQQHGKCLYSGKEINLVRLNEKGYVEIDHALPFSRTWDDSFNNKVLVLGSENQNKGNQTPYEYFNGKDNSREWQEFKARVETSRFPRSKKQRILLQKFDEDGFKECNLNDTRYVNRFLCQFVADHILLTGKGKRRVFASNGQITNLLRGFWGLRKVRAENDRHHALDAVVVACSTVAMQQKITRFVRYKEMNAFDGKTIDKETGKVLHQKTHFPQPWEFFAQEVMIRVFGKPDGKPEFEEADTPEKLRTLLAEKLSSRPEAVHEYVTPLFVSRAPNRKMSGAHKDTLRSAKRFVKHNEKISVKRVWLTEIKLADLENMVNYKNGREIELYEALKARLEAYGGNAKQAFDPKDNPFYKKGGQLVKAVRVEKTQESGVLLNKKNAYTIADNGDMVRVDVFCKVDKKGKNQYFIVPIYAWQVAENILPDIDCKGYRIDDSYTFCFSLHKYDLIAFQKDEKSKVEFAYYINCDSSNGRFYLAWHDKGSKEQQFRISTQNLVLIQKYQVNELGKEIRPCRLKKRPPVRGGGGSGGGGSGGGGSPAAKKKKLDGGGSKRPAATKKAGQAKKKK | completely inhibited Nme2Cas9 | completely inhibited Nme2Cas9 | completely inhibited Nme2Cas9 | completely inhibited Nme2Cas9 | did not inhibit Nme2Cas9 in vitro even at a 10-fold molar excess | – | –
2 | Nme1Cas9 (Cas9 of Neisseria meningitidis strain 8013), recombinant, purified from E. coli (protein) MAAFKPNSINYILGLDIGIASVGWAMVEIDEEENPIRLIDLGVRVFERAEVPKTGDSLAMARRLARSVRRLTRRRAHRLLRTRRLLKREGVLQAANFDENGLIKSLPNTPWQLRAAALDRKLTPLEWSAVLLHLIKHRGYLSQRKNEGETADKELGALLKGVAGNAHALQTGDFRTPAELALNKFEKESGHIRNQRSDYSHTFSRKDLQAELILLFEKQKEFGNPHVSGGLKEGIETLLMTQRPALSGDAVQKMLGHCTFEPAEPKAAKNTYTAERFIWLTKLNNLRILEQGSERPLTDTERATLMDEPYRKSKLTYAQARKLLGLEDTAFFKGLRYGKDNAEASTLMEMKAYHAISRALEKEGLKDKKSPLNLSPELQDEIGTAFSLFKTDEDITGRLKDRIQPEILEALLKHISFDKFVQISLKALRRIVPLMEQGKRYDEACAEIYGDHYGKKNTEEKIYLPPIPADEIRNPVVLRALSQARKVINGVVRRYGSPARIHIETAREVGKSFKDRKEIEKRQEENRKDREKAAAKFREYFPNFVGEPKSKDILKLRLYEQQHGKCLYSGKEINLGRLNEKGYVEIDHALPFSRTWDDSFNNKVLVLGSENQNKGNQTPYEYFNGKDNSREWQEFKARVETSRFPRSKKQRILLQKFDEDGFKERNLNDTRYVNRFLCQFVADRMRLTGKGKKRVFASNGQITNLLRGFWGLRKVRAENDRHHALDAVVVACSTVAMQQKITRFVRYKEMNAFDGKTIDKETGEVLHQKTHFPQPWEFFAQEVMIRVFGKPDGKPEFEEADTLEKLRTLLAEKLSSRPEAVHEYVTPLFVSRAPNRKMSGQGHMETVKSAKRLDEGVSVLRVPLTQLKLKDLEKMVNREREPKLYEALKARLEAHKDDPAKAFAEPFYKYDKAGNRTQQVKAVRVEQVQKTGVWVRNHNGIADNATMVRVDVFEKGDKYYLVPIYSWQVAKGILPDRAVVQGKDEEDWQLIDDSFNFKFSLHPNDLVEVITKKARMFGYFASCHRGTGNINIRIHDLDHKIGKNGILEGIGVKTALSFQKYQIDELGKEIRPCRLKKRPPVR | all 5 families inhibited Nme1Cas9 | all 5 families inhibited Nme1Cas9 | all 5 families inhibited Nme1Cas9 | all 5 families inhibited Nme1Cas9 | all 5 families inhibited Nme1Cas9 | AcrE2 failed to do so | –
3 | Nme1Cas9-Nme2Cas9PID chimera (Nme1Cas9 with its PID replaced by that of Nme2Cas9) (protein) MAAFKPNSINYILGLDIGIASVGWAMVEIDEEENPIRLIDLGVRVFERAEVPKTGDSLAMARRLARSVRRLTRRRAHRLLRTRRLLKREGVLQAANFDENGLIKSLPNTPWQLRAAALDRKLTPLEWSAVLLHLIKHRGYLSQRKNEGETADKELGALLKGVAGNAHALQTGDFRTPAELALNKFEKESGHIRNQRSDYSHTFSRKDLQAELILLFEKQKEFGNPHVSGGLKEGIETLLMTQRPALSGDAVQKMLGHCTFEPAEPKAAKNTYTAERFIWLTKLNNLRILEQGSERPLTDTERATLMDEPYRKSKLTYAQARKLLGLEDTAFFKGLRYGKDNAEASTLMEMKAYHAISRALEKEGLKDKKSPLNLSPELQDEIGTAFSLFKTDEDITGRLKDRIQPEILEALLKHISFDKFVQISLKALRRIVPLMEQGKRYDEACAEIYGDHYGKKNTEEKIYLPPIPADEIRNPVVLRALSQARKVINGVVRRYGSPARIHIETAREVGKSFKDRKEIEKRQEENRKDREKAAAKFREYFPNFVGEPKSKDILKLRLYEQQHGKCLYSGKEINLGRLNEKGYVEIDHALPFSRTWDDSFNNKVLVLGSENQNKGNQTPYEYFNGKDNSREWQEFKARVETSRFPRSKKQRILLQKFDEDGFKERNLNDTRYVNRFLCQFVADRMRLTGKGKKRVFASNGQITNLLRGFWGLRKVRAENDRHHALDAVVVACSTVAMQQKITRFVRYKEMNAFDGKTIDKETGEVLHQKTHFPQPWEFFAQEVMIRVFGKPDGKPEFEEADTLEKLRTLLAEKLSSRPEAVHEYVTPLFVSRAPNRKMSGAHKDTLRSAKRFVKHNEKISVKRVWLTEIKLADLENMVNYKNGREIELYEALKARLEAYGGNAKQAFDPKDNPFYKKGGQLVKAVRVEKTQESGVLLNKKNAYTIADNGDMVRVDVFCKVDKKGKNQYFIVPIYAWQVAENILPDIDCKGYRIDDSYTFCFSLHKYDLIAFQKDEKSKVEFAYYINCDSSNGRFYLAWHDKGSKEQQFRISTQNLVLIQKYQVNELGKEIRPCRLKKRPPVR | – | – | – | – | – | – | No inhibition was observed by AcrIIC5Smu on this protein chimera
